Test results taken from patent publication US10030065.

Target: purified folded MHC-complex (Example 29)
Experiment: sandwich ELISA, W6/32 coat, HRP rabbit anti-β2m detection

W6/32 mouse-anti-HLA-ABC antibody (Dako M0736)
OD450 against the negative control β2m (fold): > 6 fold
